In the supplement of paper PMC10065799, “High-throughput profiling of sequence recognition by tyrosine kinases and SH2 domains using bacterial peptide display” (eLife, 2023):

target: Hck (UniProt P08631); assay: phosphorylation enrichment, bacterial display (enrichment ratio); higher = better substrate or ligand; peptides without Tyr show the background
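Also: 11-residue human phosphosite peptides and single-mutation variants displayed on the E. coli surface, counted by deep sequencing, each peptide's frequency after selection divided by its frequency in the unselected input library; frequency after pTyr selection over input frequency; kinase dosed for 20-30% of maximal phosphorylation in three min.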

Chain of Hck (P08631 whole entry, looked up): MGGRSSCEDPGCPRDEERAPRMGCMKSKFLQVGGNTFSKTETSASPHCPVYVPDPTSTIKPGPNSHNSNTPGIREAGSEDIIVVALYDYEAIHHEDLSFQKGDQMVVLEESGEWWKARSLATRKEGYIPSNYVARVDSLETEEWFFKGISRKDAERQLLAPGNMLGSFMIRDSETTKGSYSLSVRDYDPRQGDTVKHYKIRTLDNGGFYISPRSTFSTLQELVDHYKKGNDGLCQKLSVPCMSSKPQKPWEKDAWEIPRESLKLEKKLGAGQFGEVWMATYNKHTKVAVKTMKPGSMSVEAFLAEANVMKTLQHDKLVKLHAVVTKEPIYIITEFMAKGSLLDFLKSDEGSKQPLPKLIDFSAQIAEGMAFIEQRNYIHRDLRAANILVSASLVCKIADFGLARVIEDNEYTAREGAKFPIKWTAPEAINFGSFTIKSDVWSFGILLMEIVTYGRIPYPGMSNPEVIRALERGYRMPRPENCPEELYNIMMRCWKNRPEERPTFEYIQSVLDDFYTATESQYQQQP

In order of falling phosphorylation enrichment:
1. RNDQVYQPLRD [CD3D_Y149]  10.9
2. EVASVYESFQP [MAVS_Y92_Q93E_YF]  8.64
3. PNLILYGDFRQ [MYH7_Y715_R712L]  2.87
4. DFFDLYGGEKK [PTPN11_Y66_F71K_YF]  2.81
5. LGLDECLDKLK [FMNL2_Y352_Y352C]  1.31
6. PFTRNYFVQAV [CYBA_Y87_R90Q_YF]  0.979
7. AKAFIYASHIV [ZNF573_Y229_G224A]  0.842
8. RRYVYYYSYLL [PTEN_Y177]  0.764
9. FTFNSYFMHWV [IGHV1-46_Y51_T49N_YF]  0.693
10. QRVLLYVRRET [GRHL3_Y518]  0.669
11. PFQGAYLKINK [MYO1B_Y967_E969K]  0.643
12. FKEQGYHRLPS [RIN1_Y681_P686S_YF]  0.63
13. SVTCMYSPALN [TP53_Y126_T125M]  0.594
14. GGYNNYGYGND [HNRNPH3_Y159]  0.556
15. MAFDRYVAICA [OR52J3_Y125_V128I]  0.555
16. SLTRLYVGENA [NLRP3_Y861]  0.554
17. SEELHYFVQNH [UQCRC2_Y207]  0.524
18. KAALSYVSEIG [BPIFB2_Y36]  0.476
19. QDTSRYTVSNL [BIRC3_Y245]  0.467
20. KLMTEYKKRKQ [ARFGEF3_Y2029]  0.459
21. ETKKQYDSFTF [TMED3_Y85_YF]  0.457
22. TVSSDYLHPQF [CCPG1_Y569_F566S_YF]  0.444
23. TPTFPYLLPKS [PLD2_Y580_YF]  0.423
24. EAVKNYTEKRG [PBRM1_Y672_D674E]  0.388
25. RRERLYGGGGG [FUS_Y526_P525L]  0.365
26. MLNTNYHLPPS [MT-ATP8_Y33]  0.297
27. EAMPDYKKQLR [SPATA18_Y229_S227P]  0.296
28. ALIKAYDKAVA [SMN1_Y43]  0.29
29. SHGKRYRVPSD [HHIPL2_Y395]  0.274

target: Jak2 (UniProt O60674); assay: as above
Sequence (O60674 whole entry, looked up): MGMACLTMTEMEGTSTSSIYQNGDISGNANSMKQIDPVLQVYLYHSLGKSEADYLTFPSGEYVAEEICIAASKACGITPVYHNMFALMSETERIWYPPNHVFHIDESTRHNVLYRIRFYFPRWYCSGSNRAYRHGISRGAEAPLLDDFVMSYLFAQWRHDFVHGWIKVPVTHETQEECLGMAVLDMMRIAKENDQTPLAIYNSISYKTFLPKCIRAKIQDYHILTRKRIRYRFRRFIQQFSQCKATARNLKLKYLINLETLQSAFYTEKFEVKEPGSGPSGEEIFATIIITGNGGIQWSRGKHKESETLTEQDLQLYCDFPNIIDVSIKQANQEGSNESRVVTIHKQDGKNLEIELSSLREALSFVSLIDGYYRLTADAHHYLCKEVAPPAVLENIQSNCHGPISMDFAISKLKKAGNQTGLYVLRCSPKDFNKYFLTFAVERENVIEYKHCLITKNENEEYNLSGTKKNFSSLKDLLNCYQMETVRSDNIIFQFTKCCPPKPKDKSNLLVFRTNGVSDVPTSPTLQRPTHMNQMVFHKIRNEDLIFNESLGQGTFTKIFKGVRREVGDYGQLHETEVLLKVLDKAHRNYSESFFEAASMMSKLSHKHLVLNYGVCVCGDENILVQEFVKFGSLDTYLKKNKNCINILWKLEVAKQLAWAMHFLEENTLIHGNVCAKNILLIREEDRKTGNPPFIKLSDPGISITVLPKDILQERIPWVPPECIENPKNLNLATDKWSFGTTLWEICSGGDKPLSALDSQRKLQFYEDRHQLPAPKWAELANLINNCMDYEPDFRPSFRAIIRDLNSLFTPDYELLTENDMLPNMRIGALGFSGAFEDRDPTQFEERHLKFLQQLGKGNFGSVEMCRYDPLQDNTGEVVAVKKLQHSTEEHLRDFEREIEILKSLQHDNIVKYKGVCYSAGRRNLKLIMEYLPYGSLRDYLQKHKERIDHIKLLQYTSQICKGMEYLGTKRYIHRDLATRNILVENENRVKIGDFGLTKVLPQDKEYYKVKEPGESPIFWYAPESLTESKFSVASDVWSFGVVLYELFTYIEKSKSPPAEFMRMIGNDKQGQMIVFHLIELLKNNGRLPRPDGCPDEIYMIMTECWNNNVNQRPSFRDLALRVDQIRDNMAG

In order of falling phosphorylation enrichment:
1. FTFNSYFMHWV [IGHV1-46_Y51_T49N_YF]  6.35
2. FKEQGYHRLPS [RIN1_Y681_P686S_YF]  2.09
3. LGLDECLDKLK [FMNL2_Y352_Y352C]  2.01
4. EVASVYESFQP [MAVS_Y92_Q93E_YF]  1.65
5. SVTCMYSPALN [TP53_Y126_T125M]  1.36
6. PFQGAYLKINK [MYO1B_Y967_E969K]  1.18
7. DFFDLYGGEKK [PTPN11_Y66_F71K_YF]  1.16
8. SEELHYFVQNH [UQCRC2_Y207]  1.08
9. RRYVYYYSYLL [PTEN_Y177]  0.986
10. AKAFIYASHIV [ZNF573_Y229_G224A]  0.908
11. QRVLLYVRRET [GRHL3_Y518]  0.9
12. GGYNNYGYGND [HNRNPH3_Y159]  0.808
13. TVSSDYLHPQF [CCPG1_Y569_F566S_YF]  0.779
14. ETKKQYDSFTF [TMED3_Y85_YF]  0.76
15. PNLILYGDFRQ [MYH7_Y715_R712L]  0.75
16. MAFDRYVAICA [OR52J3_Y125_V128I]  0.726
17. RNDQVYQPLRD [CD3D_Y149]  0.673
18. KAALSYVSEIG [BPIFB2_Y36]  0.668
19. KLMTEYKKRKQ [ARFGEF3_Y2029]  0.653
20. QDTSRYTVSNL [BIRC3_Y245]  0.644
21. EAMPDYKKQLR [SPATA18_Y229_S227P]  0.623
22. PFTRNYFVQAV [CYBA_Y87_R90Q_YF]  0.6
23. ALIKAYDKAVA [SMN1_Y43]  0.532
24. RRERLYGGGGG [FUS_Y526_P525L]  0.528
25. TPTFPYLLPKS [PLD2_Y580_YF]  0.519
26. MLNTNYHLPPS [MT-ATP8_Y33]  0.502
27. SLTRLYVGENA [NLRP3_Y861]  0.494
28. EAVKNYTEKRG [PBRM1_Y672_D674E]  0.478
29. SHGKRYRVPSD [HHIPL2_Y395]  0.314

target: MERTK (UniProt Q12866); assay: as above
Sequence (Q12866 whole entry, looked up): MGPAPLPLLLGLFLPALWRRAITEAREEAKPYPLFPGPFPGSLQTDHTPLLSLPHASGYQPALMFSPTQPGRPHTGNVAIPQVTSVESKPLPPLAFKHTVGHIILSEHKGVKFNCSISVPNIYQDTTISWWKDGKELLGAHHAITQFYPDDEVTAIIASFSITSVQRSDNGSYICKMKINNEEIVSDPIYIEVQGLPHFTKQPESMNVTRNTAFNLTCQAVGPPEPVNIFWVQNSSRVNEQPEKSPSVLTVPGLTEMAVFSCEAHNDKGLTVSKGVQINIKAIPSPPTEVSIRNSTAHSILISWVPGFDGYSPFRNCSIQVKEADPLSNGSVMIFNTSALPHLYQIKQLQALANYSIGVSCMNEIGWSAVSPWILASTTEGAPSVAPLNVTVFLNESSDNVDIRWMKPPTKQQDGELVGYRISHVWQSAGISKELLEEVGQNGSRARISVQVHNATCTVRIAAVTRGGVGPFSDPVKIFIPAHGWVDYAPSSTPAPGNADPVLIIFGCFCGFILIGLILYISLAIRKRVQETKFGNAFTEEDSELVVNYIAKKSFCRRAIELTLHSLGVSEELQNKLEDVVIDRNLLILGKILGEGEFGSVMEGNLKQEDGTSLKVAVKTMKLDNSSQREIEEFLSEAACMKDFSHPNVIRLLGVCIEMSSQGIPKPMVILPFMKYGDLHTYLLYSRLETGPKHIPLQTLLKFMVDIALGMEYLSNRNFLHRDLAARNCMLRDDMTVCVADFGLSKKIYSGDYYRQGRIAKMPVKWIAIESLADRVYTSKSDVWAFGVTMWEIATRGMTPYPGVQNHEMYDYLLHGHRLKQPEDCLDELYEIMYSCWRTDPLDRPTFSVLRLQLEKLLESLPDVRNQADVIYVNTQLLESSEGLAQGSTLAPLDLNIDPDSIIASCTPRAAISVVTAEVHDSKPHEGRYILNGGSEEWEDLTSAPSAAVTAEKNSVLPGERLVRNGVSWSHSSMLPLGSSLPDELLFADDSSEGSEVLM

In order of falling phosphorylation enrichment:
1. RRYVYYYSYLL [PTEN_Y177]  3.68
2. EVASVYESFQP [MAVS_Y92_Q93E_YF]  3.2
3. RNDQVYQPLRD [CD3D_Y149]  1.26
4. LGLDECLDKLK [FMNL2_Y352_Y352C]  1.09
5. FKEQGYHRLPS [RIN1_Y681_P686S_YF]  1.05
6. FTFNSYFMHWV [IGHV1-46_Y51_T49N_YF]  1.04
7. SEELHYFVQNH [UQCRC2_Y207]  0.841
8. QRVLLYVRRET [GRHL3_Y518]  0.801
9. PFTRNYFVQAV [CYBA_Y87_R90Q_YF]  0.763
10. MLNTNYHLPPS [MT-ATP8_Y33]  0.757
11. QDTSRYTVSNL [BIRC3_Y245]  0.567
12. GGYNNYGYGND [HNRNPH3_Y159]  0.565
13. RRERLYGGGGG [FUS_Y526_P525L]  0.561
14. KLMTEYKKRKQ [ARFGEF3_Y2029]  0.52
15. TPTFPYLLPKS [PLD2_Y580_YF]  0.51
16. AKAFIYASHIV [ZNF573_Y229_G224A]  0.501
17. DFFDLYGGEKK [PTPN11_Y66_F71K_YF]  0.499
18. ALIKAYDKAVA [SMN1_Y43]  0.491
19. SVTCMYSPALN [TP53_Y126_T125M]  0.472
20. PNLILYGDFRQ [MYH7_Y715_R712L]  0.465
21. PFQGAYLKINK [MYO1B_Y967_E969K]  0.461
22. ETKKQYDSFTF [TMED3_Y85_YF]  0.424
23. TVSSDYLHPQF [CCPG1_Y569_F566S_YF]  0.411
24. MAFDRYVAICA [OR52J3_Y125_V128I]  0.386
25. EAVKNYTEKRG [PBRM1_Y672_D674E]  0.384
26. SHGKRYRVPSD [HHIPL2_Y395]  0.374
27. SLTRLYVGENA [NLRP3_Y861]  0.34
28. KAALSYVSEIG [BPIFB2_Y36]  0.326
29. EAMPDYKKQLR [SPATA18_Y229_S227P]  0.322

system: c-Abl (mouse); assay: as above

In order of rising phosphorylation enrichment:
1. SHGKRYRVPSD [HHIPL2_Y395]  0.337
2. MAFDRYVAICA [OR52J3_Y125_V128I]  0.362
3. RRERLYGGGGG [FUS_Y526_P525L]  0.39
4. QRVLLYVRRET [GRHL3_Y518]  0.41
5. EAVKNYTEKRG [PBRM1_Y672_D674E]  0.433
6. KAALSYVSEIG [BPIFB2_Y36]  0.453
7. ALIKAYDKAVA [SMN1_Y43]  0.461
8. EAMPDYKKQLR [SPATA18_Y229_S227P]  0.469
9. SLTRLYVGENA [NLRP3_Y861]  0.496
10. TPTFPYLLPKS [PLD2_Y580_YF]  0.499
11. MLNTNYHLPPS [MT-ATP8_Y33]  0.556
12. KLMTEYKKRKQ [ARFGEF3_Y2029]  0.629
13. PFTRNYFVQAV [CYBA_Y87_R90Q_YF]  0.65
14. ETKKQYDSFTF [TMED3_Y85_YF]  0.681
15. RNDQVYQPLRD [CD3D_Y149]  0.728
16. PNLILYGDFRQ [MYH7_Y715_R712L]  0.766
17. QDTSRYTVSNL [BIRC3_Y245]  0.804
18. DFFDLYGGEKK [PTPN11_Y66_F71K_YF]  0.827
19. TVSSDYLHPQF [CCPG1_Y569_F566S_YF]  0.877
20. PFQGAYLKINK [MYO1B_Y967_E969K]  0.88
21. FTFNSYFMHWV [IGHV1-46_Y51_T49N_YF]  0.962
22. SVTCMYSPALN [TP53_Y126_T125M]  0.97
23. SEELHYFVQNH [UQCRC2_Y207]  1.07
24. GGYNNYGYGND [HNRNPH3_Y159]  1.24
25. FKEQGYHRLPS [RIN1_Y681_P686S_YF]  1.3
26. RRYVYYYSYLL [PTEN_Y177]  1.39
27. AKAFIYASHIV [ZNF573_Y229_G224A]  1.44
28. EVASVYESFQP [MAVS_Y92_Q93E_YF]  1.56
29. LGLDECLDKLK [FMNL2_Y352_Y352C]  1.7
